According to PMC10132805:
One block for each binder: values may come before it.

Columns and labels:
[1] = molecular target: V domain of programmed cell death 6-interacting protein (ALIX V) (human) (UniProt Q8WUM4)
[2] = molecular target: E3 ubiquitin-protein ligase NEDD4 WW2 domain (human)
[3] = molecular target: E3 ubiquitin-protein ligase NEDD4 WW4 domain (human)
[4] = molecular target: N-terminal domain of clathrin (CLTC NTD) (human) (UniProt Q00610)
N-terminal domain of clathrin (CLTC NTD) (human), sequence (Q00610 whole entry, the tested form may be a part): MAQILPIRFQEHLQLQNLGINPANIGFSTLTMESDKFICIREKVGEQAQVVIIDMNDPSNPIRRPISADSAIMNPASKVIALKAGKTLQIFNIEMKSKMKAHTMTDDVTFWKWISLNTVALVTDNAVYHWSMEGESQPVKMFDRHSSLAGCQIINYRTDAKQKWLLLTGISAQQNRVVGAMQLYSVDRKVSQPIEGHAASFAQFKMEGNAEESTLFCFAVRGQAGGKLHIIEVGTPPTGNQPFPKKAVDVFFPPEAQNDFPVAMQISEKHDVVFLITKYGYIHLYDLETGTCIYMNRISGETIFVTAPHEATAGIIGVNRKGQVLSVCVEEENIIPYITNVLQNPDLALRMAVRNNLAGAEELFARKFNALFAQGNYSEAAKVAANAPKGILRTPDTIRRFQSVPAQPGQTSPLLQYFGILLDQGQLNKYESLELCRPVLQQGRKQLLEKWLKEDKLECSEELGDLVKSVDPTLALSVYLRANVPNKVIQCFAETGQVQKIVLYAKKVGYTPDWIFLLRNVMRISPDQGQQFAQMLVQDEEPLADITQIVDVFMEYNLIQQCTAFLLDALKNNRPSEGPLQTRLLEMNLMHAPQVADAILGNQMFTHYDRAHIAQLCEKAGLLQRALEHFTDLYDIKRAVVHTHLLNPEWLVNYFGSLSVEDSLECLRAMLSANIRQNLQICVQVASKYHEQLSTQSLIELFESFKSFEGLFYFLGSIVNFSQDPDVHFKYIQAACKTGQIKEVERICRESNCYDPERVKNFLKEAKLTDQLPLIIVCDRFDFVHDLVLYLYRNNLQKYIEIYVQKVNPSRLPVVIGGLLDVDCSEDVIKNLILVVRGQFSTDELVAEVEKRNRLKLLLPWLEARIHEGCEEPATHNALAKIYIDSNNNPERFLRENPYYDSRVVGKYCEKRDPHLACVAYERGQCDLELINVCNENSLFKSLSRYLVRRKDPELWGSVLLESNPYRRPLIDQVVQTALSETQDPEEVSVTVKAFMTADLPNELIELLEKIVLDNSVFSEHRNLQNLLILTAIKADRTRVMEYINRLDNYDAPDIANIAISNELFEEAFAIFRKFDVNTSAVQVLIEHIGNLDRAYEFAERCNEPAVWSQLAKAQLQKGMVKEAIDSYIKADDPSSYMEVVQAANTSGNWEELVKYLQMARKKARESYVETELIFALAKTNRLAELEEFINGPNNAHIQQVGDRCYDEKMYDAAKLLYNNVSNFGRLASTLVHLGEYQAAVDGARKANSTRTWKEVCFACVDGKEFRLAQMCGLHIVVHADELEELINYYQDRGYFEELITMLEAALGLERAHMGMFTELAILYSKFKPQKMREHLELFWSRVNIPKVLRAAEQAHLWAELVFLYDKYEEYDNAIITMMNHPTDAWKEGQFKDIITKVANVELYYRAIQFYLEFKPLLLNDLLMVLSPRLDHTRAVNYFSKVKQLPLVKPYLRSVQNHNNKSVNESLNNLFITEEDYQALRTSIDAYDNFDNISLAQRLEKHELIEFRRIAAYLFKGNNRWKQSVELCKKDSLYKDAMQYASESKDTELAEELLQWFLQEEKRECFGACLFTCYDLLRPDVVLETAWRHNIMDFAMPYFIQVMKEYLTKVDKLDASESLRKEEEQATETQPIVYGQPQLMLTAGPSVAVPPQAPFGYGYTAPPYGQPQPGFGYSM

V domain of programmed cell death 6-interacting protein (ALIX V) (human), sequence (Q8WUM4 whole entry, the tested form may be a part): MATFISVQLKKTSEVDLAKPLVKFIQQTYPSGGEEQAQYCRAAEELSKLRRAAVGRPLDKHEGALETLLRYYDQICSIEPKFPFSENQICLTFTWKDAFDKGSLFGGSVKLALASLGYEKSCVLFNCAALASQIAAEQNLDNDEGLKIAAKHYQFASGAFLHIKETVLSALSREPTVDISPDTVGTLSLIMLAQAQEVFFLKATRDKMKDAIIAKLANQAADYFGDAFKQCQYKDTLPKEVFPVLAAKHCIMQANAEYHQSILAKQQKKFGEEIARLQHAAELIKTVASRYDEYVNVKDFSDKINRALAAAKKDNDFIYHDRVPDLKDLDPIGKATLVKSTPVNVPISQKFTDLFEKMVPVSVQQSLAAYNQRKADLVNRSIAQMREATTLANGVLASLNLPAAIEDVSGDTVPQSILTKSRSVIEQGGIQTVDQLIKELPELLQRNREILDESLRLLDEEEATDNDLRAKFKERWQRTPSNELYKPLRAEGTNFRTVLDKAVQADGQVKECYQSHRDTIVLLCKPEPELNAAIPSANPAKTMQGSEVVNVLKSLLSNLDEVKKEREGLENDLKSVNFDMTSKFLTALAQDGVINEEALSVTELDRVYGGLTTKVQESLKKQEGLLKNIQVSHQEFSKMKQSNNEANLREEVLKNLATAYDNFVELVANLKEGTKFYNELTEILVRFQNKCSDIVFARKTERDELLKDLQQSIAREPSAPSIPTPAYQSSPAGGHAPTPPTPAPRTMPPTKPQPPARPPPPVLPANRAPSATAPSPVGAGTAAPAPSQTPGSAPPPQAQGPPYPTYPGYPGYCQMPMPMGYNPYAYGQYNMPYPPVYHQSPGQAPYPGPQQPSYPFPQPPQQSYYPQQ
E3 ubiquitin-protein ligase NEDD4 WW4 domain (human), sequence (P46934 whole entry, the tested form may be a part): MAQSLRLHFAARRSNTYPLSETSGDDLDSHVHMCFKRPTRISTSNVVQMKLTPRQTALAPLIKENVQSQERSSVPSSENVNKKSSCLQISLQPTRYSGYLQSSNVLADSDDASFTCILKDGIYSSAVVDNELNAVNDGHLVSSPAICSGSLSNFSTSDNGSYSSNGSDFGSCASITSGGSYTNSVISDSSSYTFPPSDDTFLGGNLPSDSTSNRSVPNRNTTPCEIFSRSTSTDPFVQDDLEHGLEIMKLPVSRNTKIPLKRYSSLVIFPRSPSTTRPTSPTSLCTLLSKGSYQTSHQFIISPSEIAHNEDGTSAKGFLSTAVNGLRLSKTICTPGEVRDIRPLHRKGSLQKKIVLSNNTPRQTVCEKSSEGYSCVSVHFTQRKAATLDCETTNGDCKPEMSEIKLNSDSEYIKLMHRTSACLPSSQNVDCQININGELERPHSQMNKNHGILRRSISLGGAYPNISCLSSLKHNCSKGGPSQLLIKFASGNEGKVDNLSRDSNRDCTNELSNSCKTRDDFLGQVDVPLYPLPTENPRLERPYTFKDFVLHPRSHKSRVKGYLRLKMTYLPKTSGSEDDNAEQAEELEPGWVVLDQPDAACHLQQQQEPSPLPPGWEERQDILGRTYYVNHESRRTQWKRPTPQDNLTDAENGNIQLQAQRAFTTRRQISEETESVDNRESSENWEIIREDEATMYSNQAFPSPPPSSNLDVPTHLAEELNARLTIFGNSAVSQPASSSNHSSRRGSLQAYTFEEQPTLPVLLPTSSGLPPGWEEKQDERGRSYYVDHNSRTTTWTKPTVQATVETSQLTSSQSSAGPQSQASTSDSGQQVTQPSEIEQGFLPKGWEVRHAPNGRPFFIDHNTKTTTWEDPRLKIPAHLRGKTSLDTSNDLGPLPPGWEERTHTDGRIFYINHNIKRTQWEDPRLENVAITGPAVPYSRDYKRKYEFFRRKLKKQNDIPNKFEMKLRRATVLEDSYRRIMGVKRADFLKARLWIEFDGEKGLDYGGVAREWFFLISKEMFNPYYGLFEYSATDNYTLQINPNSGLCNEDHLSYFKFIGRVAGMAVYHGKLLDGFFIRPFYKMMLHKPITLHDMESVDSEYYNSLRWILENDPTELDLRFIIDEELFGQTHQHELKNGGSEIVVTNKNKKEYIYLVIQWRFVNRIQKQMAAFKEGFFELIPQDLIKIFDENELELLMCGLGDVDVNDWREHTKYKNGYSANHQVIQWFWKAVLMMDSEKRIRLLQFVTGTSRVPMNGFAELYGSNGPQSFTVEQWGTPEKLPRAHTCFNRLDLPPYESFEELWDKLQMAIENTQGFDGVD
E3 ubiquitin-protein ligase NEDD4 WW2 domain (human), sequence (P46934 whole entry, the tested form may be a part): as above

B1: SDCBP2 1-16 (Human) (peptide)
peptide: MSSLYPSLEDLKVDQA
- Kd [1]: 0.29 µM

- Kd [2]: 15 µM
- Kd [3]: 35 µM
B2: RNF11 31-65 (Human) (peptide)
peptide: EPDQEPPPPYQEQVPVPVYHPTPSQ

- Kd [2]: 13 µM
- Kd [3]: 44 µM
B3: RNF11 31-56 (Human) (peptide)
peptide: EPDQEPPPPYQEQVPV

- Kd [4]: 300 µM
B4: AP1B1 626-641 (Human) (peptide)
peptide: GDLLGDLLNLDLGPPVY

B5: SDCBP2 39-54 (Human) (peptide)
peptide: PPPVLYPNLAELENYM
- Kd [1]: 2.1 µM

- Kd [4]: 40 µM
B6: ARRB2 367-382 (Human) (peptide)
peptide: VPVDTNLIEFDTNYAT
